T1: human CD30 (human, UniProt P28908 19-595)
T1 sequence: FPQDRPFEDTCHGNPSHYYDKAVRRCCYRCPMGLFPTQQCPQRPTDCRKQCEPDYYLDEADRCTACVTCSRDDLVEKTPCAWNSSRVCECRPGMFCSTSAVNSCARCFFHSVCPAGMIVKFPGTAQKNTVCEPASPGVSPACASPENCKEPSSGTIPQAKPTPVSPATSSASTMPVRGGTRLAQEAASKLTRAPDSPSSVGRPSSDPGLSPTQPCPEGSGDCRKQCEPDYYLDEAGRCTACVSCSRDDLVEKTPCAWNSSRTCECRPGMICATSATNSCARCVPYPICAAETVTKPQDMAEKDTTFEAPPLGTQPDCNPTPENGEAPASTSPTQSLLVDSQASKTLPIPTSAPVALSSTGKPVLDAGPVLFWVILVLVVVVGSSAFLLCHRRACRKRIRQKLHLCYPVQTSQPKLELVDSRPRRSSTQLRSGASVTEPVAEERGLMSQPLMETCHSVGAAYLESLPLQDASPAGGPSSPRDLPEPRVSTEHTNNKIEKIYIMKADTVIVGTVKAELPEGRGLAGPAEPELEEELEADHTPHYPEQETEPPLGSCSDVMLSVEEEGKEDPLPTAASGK


Columns and labels:
[1] = biological target: T2, cynomolgus monkey CD3 (cynomolgus monkey, UniProt Q95LI5 22-198); assay: flow cytometry, cynomolgus monkey T cells (PBMCs)
T2 construct: CD3 endogenously expressed on T cells within cynomolgus monkey PBMCs
T2 sequence (Q95LI5 22-198): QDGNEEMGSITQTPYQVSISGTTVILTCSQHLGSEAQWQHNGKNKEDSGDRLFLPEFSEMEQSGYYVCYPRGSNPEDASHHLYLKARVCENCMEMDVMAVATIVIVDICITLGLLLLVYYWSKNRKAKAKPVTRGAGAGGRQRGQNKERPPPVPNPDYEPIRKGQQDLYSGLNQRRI
Description: Cynomolgus monkey PBMCs (Tebu-Bio, The Netherlands; cat. no. PBMCMFA-10) or purified human T cells were plated in polystyrene 96-well round-bottom plates. T cells were derived from human donor buffy coats (Sanquin, Amsterdam, The Netherlands) and isolated using the RosetteSep human T cell enrichment cocktail (Stemcell Technologies, France, cat. no. 15061) according to manufacturer's instructions. […] After washing twice in staining buffer, cells were incubated in 50 μL secondary R-PE-conjugated goat-anti-human IgG antibody at 4° C. for 30 min (1:400 dilution). After washing twice in staining buffer, T cells were stained for T-cell markers CD3 (1:100; Miltenyi biotec, clone 10D12, conjugated to APC), CD4 (1:50; eBioscience, clone OKT4, conjugated to APC-Cy7), CD8 (1:100; Biolegend, clone RPA-T8, conjugated to AF700) and T-cell activation markers CD69 (1:50; BD Biosciences, clone AB2439, conjugated to FITC), CD25 (1:50; eBioscience, clone BC96, conjugated to PE-Cy7) and CD279/PD1 (1:50; BD Biosciences, clone AEH12.2H7, conjugated to BV605). Single stained samples with Ultracomp beads (5 μL; Invitrogen, cat. no. 01-2222-42) were used for compensation adjustments of the flow cytometer. After 30 min of incubation at 4° C., cells were washed twice with staining buffer, resuspended in 100 μL staining buffer and analyzed using a FACS Fortessa (BD Biosciences). Data were processed using FlowJo (BD Biosciences).

[2] = biological target: T1, human CD30; assay: cell-based or functional assay
[3] = biological target: T1, human CD30; assay: flow cytometry, SU-DHL-1 cells
Procedure, shortened: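 CD3×CD30 bispecific antibodies, serially diluted 3-fold from 10 to 0.0046 μg/mL, were incubated with 3×10⁴ cells/well at 4° C for 30 min, then with a secondary antibody at 4° C for 30 min. Live cells were gated by FSC/SSC and TO-PRO-3 exclusion, and curves were fitted by four-parameter sigmoidal regression.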

[4] = biological target: T1, human CD30; assay: flow cytometry, KARPAS-299 cells (ALCL), range of 2 tests
Description: (§1) Cells (3×10⁴ cells/well) were incubated in polystyrene 96-well round-bottom plates (Greiner bio-one, cat. no. 650180) with serial dilutions of antibodies (range 0.0046 to 10 μg/mL in 3-fold dilution steps) in 50 μL staining buffer at 4° C. for 30 min. After washing twice in staining buffer, cells were incubated with 50 μL secondary antibody at 4° C. for 30 min. […] Next, cells were washed twice in staining buffer, resuspended in 100 μL staining buffer supplemented with TO-PRO-3 iodide (Thermo Fisher Scientific; cat. no. T3605; 1:8000 dilution) and analyzed on a FACSCelesta flow cytometer (BD Biosciences, USA). Live cells were gated based on FSC/SSC and absence of TOPRO-3 staining. Binding curves were analyzed by non-linear regression of log-transformed data (sigmoidal dose-response with variable slope, four parameters) using GraphPad Prism V7.02 software (GraphPad Software, San Diego, CA, USA).

[5] = biological target: T1, human CD30; assay: flow cytometry, SUP-T1 cells (TLL), average of 2 tests; SUP-T1 cells (TLL), average of 2 tests
Description: as §1

[6] = biological target: T1, human CD30; assay: flow cytometry, L-1236 cells (HL), range of 3 tests
Description: as §1

Row | Binder | EC50 (read off the curve) [1] [µg/mL] | T-cell mediated cytotoxicity of Karpas-299 cells, IC50 average [2] [µg/mL] | T-cell mediated cytotoxicity of Karpas-299 cells, maximum lysis average [2] [%] | EC50 (read off the curve) [3] [µg/mL] | EC50 [4] [µg/mL] | EC50 [5] [µg/mL] | EC50 [6] [µg/mL]
1 | bsG1-huCD3-FEALxCD30-MDX060-FEAR (bispecific antibody, human IgG1, kappa, lambda, also called bsG1-huCD3xCD30-MDX060) heavy 1: not shown light 1: not shown heavy 2: QVQLQQWGAGLLKPSETLSLTCAVYGGSFSAYYWSWIRQPPGKGLEWIGDINHGGGTNYNPSLKSRVTISVDTSKNQFSLKLNSVTAADTAVYYCASLTAYWGQGSLVTVSSASTKGPSVFPLAPSSKSTSGGTAALGCLVKDYFPEPVTVSWNSGALTSGVHTFPAVLQSSGLYSLSSVVTVPSSSLGTQTYICNVNHKPSNTKVDKRVEPKSCDKTHTCPPCPAPEFEGGPSVFLFPPKPKDTLMISRTPEVTCVVVAVSHEDPEVKFNWYVDGVEVHNAKTKPREEQYNSTYRVVSVLTVLHQDWLNGKEYKCKVSNKALPAPIEKTISKAKGQPREPQVYTLPPSREEMTKNQVSLTCLVKGFYPSDIAVEWESNGQPENNYKTTPPVLDSDGSFFLYSRLTVDKSRWQQGNVFSCSVMHEALHNHYTQKSLSLSPG light 2: DIQMTQSPTSLSASVGDRVTITCRASQGISSWLTWYQQKPEKAPKSLIYAASSLQSGVPSRFSGSGSGTDFTLTISSLQPEDFATYYCQQYDSYPITFGQGTRLEIKRTVAAPSVFIFPPSDEQLKSGTASVVCLLNNFYPREAKVQWKVDNALQSGNSQESVTEQDSKDSTYSLSSTLTLSKADYEKHKVYACEVTHQGLSSPVTKSFNRGEC | ~0.4 | 0.033 | 53.7 | ~0.4 |  |  | 
2 | bsG1-huCD3-FEALxCD30-MDX060-FERR (bispecific antibody, human IgG1, kappa, lambda, Bispecific IgG1 made by controlled Fab-arm exchange; also called bsIgG1-huCD3-FEALxCD30-MDX060-FERR; bsG1-huCD3×CD30-MDX060) heavy 1: not shown light 1: not shown heavy 2: QVQLQQWGAGLLKPSETLSLTCAVYGGSFSAYYWSWIRQPPGKGLEWIGDINHGGGTNYNPSLKSRVTISVDTSKNQFSLKLNSVTAADTAVYYCASLTAYWGQGSLVTVSSASTKGPSVFPLAPSSKSTSGGTAALGCLVKDYFPEPVTVSWNSGALTSGVHTFPAVLQSSGLYSLSSVVTVPSSSLGTQTYICNVNHKPSNTKVDKRVEPKSCDKTHTCPPCPAPEFERGPSVFLFPPKPKDTLMISRTPEVTCVVVDVSHEDPEVKFNWYVDGVEVHNAKTKPREEQYNSTYRVVSVLTVLHQDWLNGKEYKCKVSNKALPAPIEKTISKAKGQPREPQVYTLPPSREEMTKNQVSLTCLVKGFYPSDIAVEWESNGQPENNYKTTPPVLDSDGSFFLYSRLTVDKSRWQQGNVFSCSVMHEALHNHYTQKSLSLSPG light 2: DIQMTQSPTSLSASVGDRVTITCRASQGISSWLTWYQQKPEKAPKSLIYAASSLQSGVPSRFSGSGSGTDFTLTISSLQPEDFATYYCQQYDSYPITFGQGTRLEIKRTVAAPSVFIFPPSDEQLKSGTASVVCLLNNFYPREAKVQWKVDNALQSGNSQESVTEQDSKDSTYSLSSTLTLSKADYEKHKVYACEVTHQGLSSPVTKSFNRGEC |  | 0.029 | 52.3 |  | 0.134 to 0.269 | 0.346 | 0.163 to 0.225

From patent US20260234255A1 (Genmab, published 2026)
